Results from patent US20260258113A1, “BETA GLOBIN MIMETIC PEPTIDES AND THEIR USE” (THE UNITED STATES OF AMERICA, AS REPRESENTED BY THE …, priority 2022, published 2026).

Target: T1, alpha globin (Homo sapiens, UniProt P69905)
T1 construct: The equilibrium dissociation constant of full-length alpha globin and the eNOS oxygenase domain had not previously been quantified
Assay: Protein-protein binding affinity by biolayer interferometry
Details: binding to immobilized biotinylated alpha globin
Method: FIGS. 2A-2D: A) Beta globin, eNOS, and cytochrome B5 reductase 3 (Cyb5R3) co-immunoprecipitate with alpha globin in lysates of perfused human omental arteries. P1, P2, and P3 each represent an independent replicate consisting of pooled flash-frozen arteries from two donors (n=30 arteries from each donor). P1 and P2 were incubated with an alpha globin antibody to immunoprecipitate alpha globin and bound protein partners. P3 was incubated instead with an IgG antibody as a negative control. Western blot was performed on the immunoprecipitate with antibodies for alpha globin, beta globin, Cyb5R3, or eNOS. Myc-eNOS purified from a cell overexpression lysate served as a positive control for eNOS. RBC lysate served as a positive control for alpha and beta globin. B) The red blood cell protein Band 3/SLC4A1 is not detected in protein lysates from pooled human omental arteries. Prior to immunoprecipitation, whole protein lysate was loaded into a gel and probed by Western Blot for SLC4A1 and alpha globin. […] C-D) Biolayer interferometry sensorgram traces of the binding of eNOS or AHSP to alpha globin showing association and dissociation; raw datasets shown in black, fitting curves shown. […]
Protein-protein binding affinity assessed by biolayer interferometry: Biolayer interferometry experiments were performed on the automated eight-channel Octet RED96 instrument (ForteBio). […]

T1 sequence (P69905 whole entry, the tested form may be a part): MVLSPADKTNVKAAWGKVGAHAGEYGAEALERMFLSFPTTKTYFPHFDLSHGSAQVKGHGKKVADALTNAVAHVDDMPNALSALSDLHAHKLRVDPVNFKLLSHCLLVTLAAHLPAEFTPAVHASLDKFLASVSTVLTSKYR

Kd: 1.31 µM
B1: eNOSox: recombinant human eNOS oxidase domain (protein)
chain: PKFPRVKNWEVGSITYDTLSAQAQQDGPCTPRRCLGSLVFPRKLQGRPSPGPPAPEQLLSQARDFINQYYSSIKRSGSQAHEQRLQEVEAEVAATGTYQLRESELVFGAKQAWRNAPRCVGRIQWGKLQVFDARDCRSAQEMFTYICNHIKYATNRGNLRSAITVFPQRCPGRGDFRIWNSQLVRYAGYRQQDGSVRGDPANVEITELCIQHGWTPGNGRFDVLPLLLQAPDDPPELFLLPPELVLEVPLEHPTLEWFAALGLRWYALPAVSNMLLEIGGLEFPAAPFSGWYMSTEIGTRNLCDPHRYNILEDVAVCMDLDTRTTSSLWKDKAAVEINVAVLHSYQLAKVTIVDHHAATASFMKHLENEQKARGGCPADWAWIVPPISGSLTPVFHQEMVNYFLSPAFRYQPDPWKGSAAKGTGITR
